This is an account of results in patent publication US20150344570A1 (published 2015).

B1: GpH7-B3 variant A330_05P/GpL16-k0 (antibody, human IgG1, kappa)
heavy: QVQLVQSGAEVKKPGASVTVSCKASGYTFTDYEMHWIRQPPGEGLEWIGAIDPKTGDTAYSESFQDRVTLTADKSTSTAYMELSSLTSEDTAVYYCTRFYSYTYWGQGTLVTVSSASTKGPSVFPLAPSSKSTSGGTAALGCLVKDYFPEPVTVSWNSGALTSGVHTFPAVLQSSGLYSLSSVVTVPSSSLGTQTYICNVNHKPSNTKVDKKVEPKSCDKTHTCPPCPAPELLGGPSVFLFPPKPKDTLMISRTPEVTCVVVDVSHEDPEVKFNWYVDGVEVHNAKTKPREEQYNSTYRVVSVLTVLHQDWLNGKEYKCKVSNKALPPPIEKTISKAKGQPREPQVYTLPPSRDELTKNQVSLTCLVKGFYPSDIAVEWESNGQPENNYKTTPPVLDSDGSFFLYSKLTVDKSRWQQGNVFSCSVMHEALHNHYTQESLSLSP
light: DIVMTQSPLSLPVTPGEPASISCQASESLVHSNRNTYLHWYLQKPGQSPQLLIYKVSNRFSGVPDRFSGSGSGTDFTLKISRVEAEDVGVYYCSQNTHVPPTFGQGTKVEIERTVAAPSVFIFPPSDEQLKSGTASVVCLLNNFYPREAKVQWKVDNALQSGNSQESVTEQDSKDSTYSLSSTLTLSKADYEKHKVYACEVTHQGLSSPVTKSFNRGEC
notes: both H chains altered; also called Ho Ab A330_05P
B2: GpH7-B3 variant A330_07I/GpL16-k0 (antibody, human IgG1, kappa)
heavy: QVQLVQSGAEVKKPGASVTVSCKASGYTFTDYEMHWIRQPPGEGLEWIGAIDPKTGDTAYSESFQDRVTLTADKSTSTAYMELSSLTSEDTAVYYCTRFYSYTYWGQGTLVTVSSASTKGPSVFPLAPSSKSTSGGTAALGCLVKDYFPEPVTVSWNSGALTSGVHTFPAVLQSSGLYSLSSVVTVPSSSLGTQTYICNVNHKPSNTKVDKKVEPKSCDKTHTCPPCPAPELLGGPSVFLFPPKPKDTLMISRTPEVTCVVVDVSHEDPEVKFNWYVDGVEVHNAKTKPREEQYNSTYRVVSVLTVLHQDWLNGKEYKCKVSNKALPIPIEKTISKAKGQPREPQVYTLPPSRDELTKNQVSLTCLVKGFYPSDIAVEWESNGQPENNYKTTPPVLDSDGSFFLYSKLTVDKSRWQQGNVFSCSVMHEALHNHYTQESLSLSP
light: DIVMTQSPLSLPVTPGEPASISCQASESLVHSNRNTYLHWYLQKPGQSPQLLIYKVSNRFSGVPDRFSGSGSGTDFTLKISRVEAEDVGVYYCSQNTHVPPTFGQGTKVEIERTVAAPSVFIFPPSDEQLKSGTASVVCLLNNFYPREAKVQWKVDNALQSGNSQESVTEQDSKDSTYSLSSTLTLSKADYEKHKVYACEVTHQGLSSPVTKSFNRGEC
notes: both H chains altered; also called Ho Ab A330_07I
B3: GpH7-B3 variant E333_02A/GpL16-k0 (antibody, human IgG1, kappa)
heavy: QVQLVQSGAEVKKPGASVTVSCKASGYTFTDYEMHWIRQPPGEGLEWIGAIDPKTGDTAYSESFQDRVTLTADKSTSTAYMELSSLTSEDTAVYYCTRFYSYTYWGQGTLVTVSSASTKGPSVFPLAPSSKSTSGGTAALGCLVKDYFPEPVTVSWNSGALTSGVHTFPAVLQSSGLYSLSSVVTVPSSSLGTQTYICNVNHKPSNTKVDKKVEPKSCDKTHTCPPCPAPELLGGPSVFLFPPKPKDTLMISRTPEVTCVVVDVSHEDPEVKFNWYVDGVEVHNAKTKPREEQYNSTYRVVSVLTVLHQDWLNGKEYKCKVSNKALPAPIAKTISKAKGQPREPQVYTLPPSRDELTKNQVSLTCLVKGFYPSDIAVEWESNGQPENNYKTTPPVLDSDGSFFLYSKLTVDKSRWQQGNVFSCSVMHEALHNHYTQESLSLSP
light: DIVMTQSPLSLPVTPGEPASISCQASESLVHSNRNTYLHWYLQKPGQSPQLLIYKVSNRFSGVPDRFSGSGSGTDFTLKISRVEAEDVGVYYCSQNTHVPPTFGQGTKVEIERTVAAPSVFIFPPSDEQLKSGTASVVCLLNNFYPREAKVQWKVDNALQSGNSQESVTEQDSKDSTYSLSSTLTLSKADYEKHKVYACEVTHQGLSSPVTKSFNRGEC
notes: both H chains altered; also called Ho Ab E333_02A
B4: GpH7-A5/GpH7-B3 variant Y300_19Q/GpL16-k0 (antibody, human IgG1, kappa)
heavy 1: not shown
heavy 2: not shown
light: DIVMTQSPLSLPVTPGEPASISCQASESLVHSNRNTYLHWYLQKPGQSPQLLIYKVSNRFSGVPDRFSGSGSGTDFTLKISRVEAEDVGVYYCSQNTHVPPTFGQGTKVEIERTVAAPSVFIFPPSDEQLKSGTASVVCLLNNFYPREAKVQWKVDNALQSGNSQESVTEQDSKDSTYSLSSTLTLSKADYEKHKVYACEVTHQGLSSPVTKSFNRGEC
notes: heterodimerized IgG1, mutation in one H chain only; also called He Ab
B5: GpH7-A5/GpH7-B3 variant Y296_12R/GpL16-k0 (antibody, human IgG1, kappa)
heavy 1: not shown
heavy 2: not shown
light: DIVMTQSPLSLPVTPGEPASISCQASESLVHSNRNTYLHWYLQKPGQSPQLLIYKVSNRFSGVPDRFSGSGSGTDFTLKISRVEAEDVGVYYCSQNTHVPPTFGQGTKVEIERTVAAPSVFIFPPSDEQLKSGTASVVCLLNNFYPREAKVQWKVDNALQSGNSQESVTEQDSKDSTYSLSSTLTLSKADYEKHKVYACEVTHQGLSSPVTKSFNRGEC
notes: as for B4
B6: GpH7-A5/GpH7-B3 variant Y296_06M/GpL16-k0 (antibody, human IgG1, kappa)
heavy 1: not shown
heavy 2: not shown
light: DIVMTQSPLSLPVTPGEPASISCQASESLVHSNRNTYLHWYLQKPGQSPQLLIYKVSNRFSGVPDRFSGSGSGTDFTLKISRVEAEDVGVYYCSQNTHVPPTFGQGTKVEIERTVAAPSVFIFPPSDEQLKSGTASVVCLLNNFYPREAKVQWKVDNALQSGNSQESVTEQDSKDSTYSLSSTLTLSKADYEKHKVYACEVTHQGLSSPVTKSFNRGEC
notes: as for B4
B7: GpH7-A5/GpH7-B3 variant Y300_06M/GpL16-k0 (antibody, human IgG1, kappa)
heavy 1: not shown
heavy 2: not shown
light: DIVMTQSPLSLPVTPGEPASISCQASESLVHSNRNTYLHWYLQKPGQSPQLLIYKVSNRFSGVPDRFSGSGSGTDFTLKISRVEAEDVGVYYCSQNTHVPPTFGQGTKVEIERTVAAPSVFIFPPSDEQLKSGTASVVCLLNNFYPREAKVQWKVDNALQSGNSQESVTEQDSKDSTYSLSSTLTLSKADYEKHKVYACEVTHQGLSSPVTKSFNRGEC
notes: as for B4
B8: GpH7-A5/GpH7-B3 variant Y300_03V/GpL16-k0 (antibody, human IgG1, kappa)
heavy 1: not shown
heavy 2: not shown
light: DIVMTQSPLSLPVTPGEPASISCQASESLVHSNRNTYLHWYLQKPGQSPQLLIYKVSNRFSGVPDRFSGSGSGTDFTLKISRVEAEDVGVYYCSQNTHVPPTFGQGTKVEIERTVAAPSVFIFPPSDEQLKSGTASVVCLLNNFYPREAKVQWKVDNALQSGNSQESVTEQDSKDSTYSLSSTLTLSKADYEKHKVYACEVTHQGLSSPVTKSFNRGEC
notes: as for B4
B9: GpH7-A5/GpH7-B3 variant T335_20W/GpL16-k0 (antibody, human IgG1, kappa)
heavy 1: not shown
heavy 2: not shown
light: DIVMTQSPLSLPVTPGEPASISCQASESLVHSNRNTYLHWYLQKPGQSPQLLIYKVSNRFSGVPDRFSGSGSGTDFTLKISRVEAEDVGVYYCSQNTHVPPTFGQGTKVEIERTVAAPSVFIFPPSDEQLKSGTASVVCLLNNFYPREAKVQWKVDNALQSGNSQESVTEQDSKDSTYSLSSTLTLSKADYEKHKVYACEVTHQGLSSPVTKSFNRGEC
notes: as for B4
B10: GpH7-A5/GpH7-B3 variant Y296_20W/GpL16-k0 (antibody, human IgG1, kappa)
heavy 1: not shown
heavy 2: not shown
light: DIVMTQSPLSLPVTPGEPASISCQASESLVHSNRNTYLHWYLQKPGQSPQLLIYKVSNRFSGVPDRFSGSGSGTDFTLKISRVEAEDVGVYYCSQNTHVPPTFGQGTKVEIERTVAAPSVFIFPPSDEQLKSGTASVVCLLNNFYPREAKVQWKVDNALQSGNSQESVTEQDSKDSTYSLSSTLTLSKADYEKHKVYACEVTHQGLSSPVTKSFNRGEC
notes: as for B4
B11: GpH7-A5/GpH7-B3 variant T335_16H/GpL16-k0 (antibody, human IgG1, kappa)
heavy 1: not shown
heavy 2: not shown
light: DIVMTQSPLSLPVTPGEPASISCQASESLVHSNRNTYLHWYLQKPGQSPQLLIYKVSNRFSGVPDRFSGSGSGTDFTLKISRVEAEDVGVYYCSQNTHVPPTFGQGTKVEIERTVAAPSVFIFPPSDEQLKSGTASVVCLLNNFYPREAKVQWKVDNALQSGNSQESVTEQDSKDSTYSLSSTLTLSKADYEKHKVYACEVTHQGLSSPVTKSFNRGEC
notes: as for B4
B12: GpH7-A5/GpH7-B3 variant Y300_08L/GpL16-k0 (antibody, human IgG1, kappa)
heavy 1: not shown
heavy 2: not shown
light: DIVMTQSPLSLPVTPGEPASISCQASESLVHSNRNTYLHWYLQKPGQSPQLLIYKVSNRFSGVPDRFSGSGSGTDFTLKISRVEAEDVGVYYCSQNTHVPPTFGQGTKVEIERTVAAPSVFIFPPSDEQLKSGTASVVCLLNNFYPREAKVQWKVDNALQSGNSQESVTEQDSKDSTYSLSSTLTLSKADYEKHKVYACEVTHQGLSSPVTKSFNRGEC
notes: as for B4
B13: GpH7-A5/GpH7-B3 variant Y300_13S/GpL16-k0 (antibody, human IgG1, kappa)
heavy 1: not shown
heavy 2: not shown
light: DIVMTQSPLSLPVTPGEPASISCQASESLVHSNRNTYLHWYLQKPGQSPQLLIYKVSNRFSGVPDRFSGSGSGTDFTLKISRVEAEDVGVYYCSQNTHVPPTFGQGTKVEIERTVAAPSVFIFPPSDEQLKSGTASVVCLLNNFYPREAKVQWKVDNALQSGNSQESVTEQDSKDSTYSLSSTLTLSKADYEKHKVYACEVTHQGLSSPVTKSFNRGEC
notes: as for B4
B14: GpH7-A5/GpH7-B3 variant Y300_14T/GpL16-k0 (antibody, human IgG1, kappa)
heavy 1: not shown
heavy 2: not shown
light: DIVMTQSPLSLPVTPGEPASISCQASESLVHSNRNTYLHWYLQKPGQSPQLLIYKVSNRFSGVPDRFSGSGSGTDFTLKISRVEAEDVGVYYCSQNTHVPPTFGQGTKVEIERTVAAPSVFIFPPSDEQLKSGTASVVCLLNNFYPREAKVQWKVDNALQSGNSQESVTEQDSKDSTYSLSSTLTLSKADYEKHKVYACEVTHQGLSSPVTKSFNRGEC
notes: as for B4
B15: GpH7-A5/GpH7-B3 variant Y296_16H/GpL16-k0 (antibody, human IgG1, kappa)
heavy 1: not shown
heavy 2: not shown
light: DIVMTQSPLSLPVTPGEPASISCQASESLVHSNRNTYLHWYLQKPGQSPQLLIYKVSNRFSGVPDRFSGSGSGTDFTLKISRVEAEDVGVYYCSQNTHVPPTFGQGTKVEIERTVAAPSVFIFPPSDEQLKSGTASVVCLLNNFYPREAKVQWKVDNALQSGNSQESVTEQDSKDSTYSLSSTLTLSKADYEKHKVYACEVTHQGLSSPVTKSFNRGEC
notes: as for B4
B16: GpH7-A5/GpH7-B3 variant Y300_02A/GpL16-k0 (antibody, human IgG1, kappa)
heavy 1: not shown
heavy 2: not shown
light: DIVMTQSPLSLPVTPGEPASISCQASESLVHSNRNTYLHWYLQKPGQSPQLLIYKVSNRFSGVPDRFSGSGSGTDFTLKISRVEAEDVGVYYCSQNTHVPPTFGQGTKVEIERTVAAPSVFIFPPSDEQLKSGTASVVCLLNNFYPREAKVQWKVDNALQSGNSQESVTEQDSKDSTYSLSSTLTLSKADYEKHKVYACEVTHQGLSSPVTKSFNRGEC
notes: as for B4
B17: GpH7-A5/GpH7-B3 variant T335_18N/GpL16-k0 (antibody, human IgG1, kappa)
heavy 1: not shown
heavy 2: not shown
light: DIVMTQSPLSLPVTPGEPASISCQASESLVHSNRNTYLHWYLQKPGQSPQLLIYKVSNRFSGVPDRFSGSGSGTDFTLKISRVEAEDVGVYYCSQNTHVPPTFGQGTKVEIERTVAAPSVFIFPPSDEQLKSGTASVVCLLNNFYPREAKVQWKVDNALQSGNSQESVTEQDSKDSTYSLSSTLTLSKADYEKHKVYACEVTHQGLSSPVTKSFNRGEC
notes: as for B4
B18: GpH7-A5/GpH7-B3 variant T335_19Q/GpL16-k0 (antibody, human IgG1, kappa)
heavy 1: not shown
heavy 2: not shown
light: DIVMTQSPLSLPVTPGEPASISCQASESLVHSNRNTYLHWYLQKPGQSPQLLIYKVSNRFSGVPDRFSGSGSGTDFTLKISRVEAEDVGVYYCSQNTHVPPTFGQGTKVEIERTVAAPSVFIFPPSDEQLKSGTASVVCLLNNFYPREAKVQWKVDNALQSGNSQESVTEQDSKDSTYSLSSTLTLSKADYEKHKVYACEVTHQGLSSPVTKSFNRGEC
notes: as for B4
B19: GpH7-A5/GpH7-B3 variant Y300_11K/GpL16-k0 (antibody, human IgG1, kappa)
heavy 1: not shown
heavy 2: not shown
light: DIVMTQSPLSLPVTPGEPASISCQASESLVHSNRNTYLHWYLQKPGQSPQLLIYKVSNRFSGVPDRFSGSGSGTDFTLKISRVEAEDVGVYYCSQNTHVPPTFGQGTKVEIERTVAAPSVFIFPPSDEQLKSGTASVVCLLNNFYPREAKVQWKVDNALQSGNSQESVTEQDSKDSTYSLSSTLTLSKADYEKHKVYACEVTHQGLSSPVTKSFNRGEC
notes: as for B4
B20: GpH7-A5/GpH7-B3 variant Y296_11K/GpL16-k0 (antibody, human IgG1, kappa)
heavy 1: not shown
heavy 2: not shown
light: DIVMTQSPLSLPVTPGEPASISCQASESLVHSNRNTYLHWYLQKPGQSPQLLIYKVSNRFSGVPDRFSGSGSGTDFTLKISRVEAEDVGVYYCSQNTHVPPTFGQGTKVEIERTVAAPSVFIFPPSDEQLKSGTASVVCLLNNFYPREAKVQWKVDNALQSGNSQESVTEQDSKDSTYSLSSTLTLSKADYEKHKVYACEVTHQGLSSPVTKSFNRGEC
notes: as for B4
B21: GpH7-A5/GpH7-B3 variant Y300_20W/GpL16-k0 (antibody, human IgG1, kappa)
heavy 1: not shown
heavy 2: not shown
light: DIVMTQSPLSLPVTPGEPASISCQASESLVHSNRNTYLHWYLQKPGQSPQLLIYKVSNRFSGVPDRFSGSGSGTDFTLKISRVEAEDVGVYYCSQNTHVPPTFGQGTKVEIERTVAAPSVFIFPPSDEQLKSGTASVVCLLNNFYPREAKVQWKVDNALQSGNSQESVTEQDSKDSTYSLSSTLTLSKADYEKHKVYACEVTHQGLSSPVTKSFNRGEC
notes: as for B4

In the first test the target is FcγRIIIa extracellular domain with C-terminal His tag (human, UniProt P08637 17-208). Briefly: SPR (Biacore), both H chains altered; HoCon Ab GpH7-B3/GpL16-k0 = 100. On the technique in general: SPR reads the build-up and loss of mass on a sensor chip optically.
FcγRIIIa extracellular domain with C-terminal His tag, sequence (P08637 17-208): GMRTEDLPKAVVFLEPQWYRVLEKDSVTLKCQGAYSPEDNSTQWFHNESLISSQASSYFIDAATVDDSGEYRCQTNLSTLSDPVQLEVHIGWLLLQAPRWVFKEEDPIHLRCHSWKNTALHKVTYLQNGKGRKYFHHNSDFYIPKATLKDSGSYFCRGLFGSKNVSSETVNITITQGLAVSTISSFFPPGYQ
Take B1: the Ho/Con_3a is 56.6%.

The molecule B2 returned a Ho/Con_3a of 93%.

B3 displayed a Ho/Con_3a of 93.3%.

The target of a further test is T1, FcγRIa (human, UniProt P12314 16-292).
T1 construct: extracellular domain; soluble His-tagged extracellular domain expressed in FreeStyle293 cells, used as analyte in Biacore; also called FcgRI; CD64
T1 sequence (P12314 16-292): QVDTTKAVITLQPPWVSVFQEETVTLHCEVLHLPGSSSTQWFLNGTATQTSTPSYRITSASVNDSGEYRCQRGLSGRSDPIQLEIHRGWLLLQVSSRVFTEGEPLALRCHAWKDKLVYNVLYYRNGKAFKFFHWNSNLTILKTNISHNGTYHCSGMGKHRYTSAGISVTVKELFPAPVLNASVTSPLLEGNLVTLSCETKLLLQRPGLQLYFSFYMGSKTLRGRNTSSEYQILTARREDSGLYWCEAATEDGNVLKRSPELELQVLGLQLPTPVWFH
The test is described as follows: SPR (Biacore), captured antibody, FcγRIa analyte; relative to GpH7-A5/GpH7-B3/GpL16-k0.
In the case of B4, the He/Con_1a was 112 relative, control = 100.

As for B5, the He/Con_1a is 106 relative, control = 100.

With B6, the He/Con_1a is 104 relative, control = 100.

Take B7: the He/Con_1a was 112 relative, control = 100.

Regarding B8, the He/Con_1a was 117 relative, control = 100.

On to B9, for which the He/Con_1a is 106 relative, control = 100.

Regarding B10, the He/Con_1a is 111 relative, control = 100.

Regarding B11, the He/Con_1a was 106 relative, control = 100.

Take B12: the He/Con_1a was 113 relative, control = 100.

In the case of B13, the He/Con_1a is 111 relative, control = 100.

Take B14: the He/Con_1a was 112 relative, control = 100.

Consider B15, for which the He/Con_1a was 106 relative, control = 100.

As to B16, the He/Con_1a is 112 relative, control = 100.

With B17, the He/Con_1a is 106 relative, control = 100.

With B18, the He/Con_1a is 105 relative, control = 100.

As for B19, the He/Con_1a is 107 relative, control = 100.

On to B20, for which the He/Con_1a is 105 relative, control = 100.

Take B21: the He/Con_1a was 112 relative, control = 100.
